This passage reports EC50 results from patent WO2021223719A1 (dated 2021).

Positions count from the first letter of the chain named.

For this assay, the target named is FMC63-scFv-mFc protein. Briefly: ELISA, plate coated with FMC63-scFv-mFc, biotin-labelled FMC63-scFv-mFc for detection.

B1: mAb02 (8B3H4) (antibody, human IgG1, kappa, V domains shown)
VH: QVQVQQPGAELVKPGASVRLSCKASGYTFTTYWMHWVKQRPGQGLEWIGMIHPNSDSINYNEKFKSKATLIVDKSSSTFYMQLSSLTSEDSAVYYCARTDGYYAPYFAMDYWGQGTSVTVSS
VL: DIQMTQTTSSLSASLGDRVTISCRASQDIRDNLNWYQQKPDGTVKLLIYYKSRSHSGVPSRFSGSGSGTDYSLTISNLEQEDIATYFCQQGNTLPFTFGSGTKLEIKR
notes: Tested as the murine hybridoma antibody
B1: the concentration giving a half-maximal response (EC50) was 0.023 µg/mL.

B2: mAb07 (27C5E11) (antibody, V domains shown)
VH: B1 VH with V4L, R19K, T31S, S55G, I58T, S66T, I71T, F79A
VL: DIQMTQSTSSLSASLGDRVTISCRASQDINNYLNWYQQKPDGTVKLLIYYTSRLHLGVPSRFSGSGSGTDYSLTISNLEQEDIATYFCQQGNTLPFTVGSGTKLEIK
For the molecule B2, the 50% effective concentration (EC50) turned out to be 0.099 µg/mL.

B3: mAb023 (75H6C7) (antibody, V domains shown)
VH: QAQLQQPGAELVMPGASVKLSCKASGYTFTNYWMNWMKQRPGQGLEWIGEIDPSDSDKNYNQKFKDKATLTVDKSSSTAYMQLSSLTSEDSAVYYCAGGYYGMDFWGQGTSVTVSS
VL: DVVMTQTPLSLPVSLGDQASISCRSSQSLENSKGNTYLNWYVQKPGQSPQLLIYRVSTRFSGVLDRFSGSGSGTDFTLKISRVEAEDLGVYFCLQLTHVPFTFGSGTKLEIK
In turn, B3 returned an EC50 of 0.0512 µg/mL.

B4: mAb06 (26E7D2) (antibody, human IgG1, kappa, V domains shown)
VH: QVQLQQPGAELVKPGASVKLSCKVSGYTFTSYWIHWVKQRPGRGLEWIGRIDPISGGANYNEKFKTKATLTVDKPSSTAYMQLSSLTSEDSAVYYCARWGGGDYWGHGTTLTVSS
VL: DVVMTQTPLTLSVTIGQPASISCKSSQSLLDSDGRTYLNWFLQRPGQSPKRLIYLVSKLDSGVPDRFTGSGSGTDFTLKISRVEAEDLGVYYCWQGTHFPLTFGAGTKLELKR
notes: as for B1
B4 gave a concentration giving a half-maximal response (EC50) of 0.0299 µg/mL.

B5: mAb020 (52H8C4) (antibody, human IgG1, kappa, V domains shown)
VH: EVMLVESGGGLVKPGGSLKLSCAASGFTFSSYTMSWVRQTPEKRLEWVATITGGGGDTFYPDSVKGRFTISRDNAKNTLYLQVSSLRSEDTAVYHCARQYYDYDGGAMDYWGQGTSVTVSS
VL: DIVLTQSPASLAVSLGQRAIISCKASQSVSFAGTGLMHWYQQKPGQQPKLLIYRASNLEAGVPTRFSGSGSRTDFTLNIHPVEEDDAATYYCQQSREYPRTFGGGTKLEIKR
notes: as for B1
Molecule B5 came in with an EC50 of 0.113 µg/mL.
